# According to US20040082080A1, “Method of measuring molecular interactions” (priority 2002, published 2004):
# Biological target: T1, low affinity nerve growth factor receptor, gp75 (Homo sapiens, UniProt P08138)
# T1 construct: were expressed endogenously in A875 cells; endogenous in cells; host or cells: A875 cells
# Assay: FCS autocorrelation on A875 cells, gp75 receptor stoichiometry
# Type: cell-based
# Settings: 180 nM NGF for 5 minutes
# Description: Macromolecular stoichiometry, i.e., the quantitative proportions with which two macromolecules interact, of a target can be determined from autocorrelation data. Starting with Equation 4, macromolecular stoichiometry can be calculated if it is assumed that intersystem crossing and particle diffusion are independent sources of fluctuation. The first occurs in the microsecond (μs) time domain and results from intersystem crossing of fluorophores between the singlet and triplet states. The second occurs in the millisecond (ms) time domain, and results from the diffusion of particles into and out of the confocal volume. […]
# where F1N′P defines the total number of fast diffusing particles, i.e., uncomplexed fluorescently tagged probes, and F2N′P defines the total number of slow diffusing complexes formed. […] S is obtained with Equation 8 for each target concentration using the parameter values obtained by fitting to Equation 6 and the calibration factor determined with Equation 7
# The samples were analyzed using a fluorescence correlation spectroscopy instrument configured to distinct fluorescence emission at different wavelengths and a data processing program capable of autocorrelation, crosscorrelation, Fourier transform and Moment analyses. […]
# T1 sequence (P08138 29-427): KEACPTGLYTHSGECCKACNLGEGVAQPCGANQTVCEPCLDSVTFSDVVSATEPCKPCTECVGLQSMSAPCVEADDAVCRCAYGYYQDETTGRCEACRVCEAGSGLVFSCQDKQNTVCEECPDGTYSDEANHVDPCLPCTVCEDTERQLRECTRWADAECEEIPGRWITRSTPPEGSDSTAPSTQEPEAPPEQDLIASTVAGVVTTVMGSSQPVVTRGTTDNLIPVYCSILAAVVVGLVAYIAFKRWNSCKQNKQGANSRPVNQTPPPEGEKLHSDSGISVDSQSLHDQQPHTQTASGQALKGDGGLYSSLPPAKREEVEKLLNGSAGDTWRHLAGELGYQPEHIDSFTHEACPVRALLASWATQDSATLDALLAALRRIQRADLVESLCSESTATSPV
substance,measurement,value
nerve growth factor [NGF],stoichiometry calculation for gp75 (Equation 8),0.94
